Assay results taken from patent US20060009452A1, “Therapeutic targeting of PARC/CCL18 and its signaling in pulmonary fibrosis” (priority 2004, published 2006).

What was measured:
Assay type in all cases: cell-based, human
TGF-β1 = TGF-β1 ELISA of fibroblast supernatants and lysates; details: 300 ng/ml rhPARC
From the text: Transforming Growth Factor-β ELISA Assays. ELISA kits for TGF-β1 and TGF-β2 were purchased from R&D Systems. ELISA for TGF-β3 was custom developed using a DuoSet ELISA Development System (R&D Systems) following manufacturer's recommendations. […] Recombinant human TGF-β1, TGF-β2, and TGF-β3 from R&D Systems were used in serial dilutions for calibration of the assays. The minimal detection level in these assays was 10-20 pg/ml of TGF-β. Low serum cell culture medium containing 0.5% dialyzed fetal bovine serum had no detectable TGF-β and was used as a negative control in these assays. Each of LF1-LF4 cultures was tested in duplicates for each time point in at least three independent experiments.
Transforming Growth Factor-β1 ELISA Assays. ELISA kits for transforming growth factor (TGF)-β1 were purchased from R&D Systems (Minneapolis, Minn.), and fibroblast culture supernatants and whole cell lysates after 3, 6, 12, 24, 48, and 72 h activation with rhPARC were assayed in duplicates for total TGF-β1, according to the manufacturer's instructions. Low-serum cell culture medium containing 0.5% dialyzed fetal bovine serum had no detectable TGF-β1 and was used as a negative control in these assays.
ELISA kits for TGF-β1, -β2, and -β3 were purchased from R&D Systems and assays performed following manufacturer's recommendations. […] The minimal detection level in these assays was 10-20 pg/ml of TGF-β. […]

lung fibroblasts = experiment: Western blotting of fibroblast culture supernatants for collagen type I / α1(I)
Experimental: Collagen Production Assays. Collagen was quantified as described elsewhere (Atamas S P et al.). Briefly, fibroblasts were cultured with β-aminopropionitrile (Sigma) to prevent collagen cross-linking, and Western blotting assays for collagen were performed using rabbit affinity purified anti-collagen type I antibody (Rockland, Gilbertsville, Pa.). Before electrophoresis, samples were reduced and denatured by boiling in Laemmli buffer containing β-mercaptoethanol. Human purified collagen type I (Southern Biotech, Birmingham, Ala.) was used as a positive control in these assays. The identity of collagen bands was confirmed by sensitivity to pepsin and collagenase (both from Sigma) digestion, as described (Atamas S P et al.). Under these conditions, pro-collagen appears as a single or double band around 175 kDa (Gaidarova S et al., Stefanovic B et al.). Images were collected using a Storm densitometer and band densities analyzed with ImageQuant software (Molecular Dynamics, Sunnyvale, Calif.).
Western blotting assays for collagen were performed using rabbit affinity purified anti-collagen type I antibody (Rockland, Gilbertsville, Pa.). Before electrophoresis, samples were reduced and denatured by boiling in Laemmli buffer containing β-mercaptoethanol. Human purified collagen type I (Southern Biotech, Birmingham, Ala.) was used as a positive control in these assays.
Collagen was quantified by Western blotting and the identity of collagen bands was confirmed by sensitivity to pepsin and collagenase digestion as described elsewhere in Atamas et al. (Am. J. Respir. Cell. Mol., 29:743-749 (2003)). In these assays, pro-collagen appears as a single or double band with a molecular weight of approximately 175 kDa (4,27,28).

Sp1 = experiment: TranSignal protein/DNA arrays of nuclear lysates; details: LF1 and LF2

B1: rhPARC: Recombinant human pulmonary and activation-regulated chemokine (CC chemokine CCL18), purchased from R&D Systems and Cell Sciences (protein)
chain: AQVGTNKELCCLVYTSWQIPQKFIVDYSETSPQCPKPGVILLTKRGRQICADPNKKWVQKYISDLKLNA
- maximal increase in production of TGFβ1 by fibroblasts (TGF-β1; 3-72 h, lung and dermal fibroblast lines): 1.3±0.2 fold
- total TGF-β1 in culture supernatants after stimulation (TGF-β1; primary lung fibroblast cultures): decreased
- concentration causing detectable stimulation of collagen production (lung fibroblasts): below 300 ng/ml
- collagen production, dose-response (lung fibroblasts; LF1 and LF4, 30 ng/ml and 300 ng/ml rhPARC): significant increase in collagen production
- increase in collagen production over control non-treated cells (lung fibroblasts; LF1 and LF4, 3, 6 and 12 h of activation): ≤ 1.2±0.2 fold
- combined density of procollagen bands, fold higher than non-stimulated control (lung fibroblasts; LF2 cells, 300 ng/ml rhPARC, 48 h): 4.2 fold
- increase in densities of the collagen bands relative to the control culture (lung fibroblasts; LF4, 300 ng/ml rhPARC, 24 h): 4.4
- increase in densities of the collagen bands relative to the control culture (lung fibroblasts; LF4, 300 ng/ml rhPARC, 48 h): 3.2
- increase in collagen production, densitometry at shorter non-saturating exposure (lung fibroblasts; LF4, 300 ng/ml rhPARC, 72 h): 3.4 fold
- increase in densities of the collagen bands relative to the control culture (lung fibroblasts; LF4, 300 ng/ml rhPARC, 72 h, bands saturated): 1.3
- combined density of procollagen bands, fold higher than non-stimulated control (lung fibroblasts; LF4 cells, 100 ng/ml rhPARC, 48 h): 3.6 fold
- DNA binding by Sp1 (protein/DNA arrays) (Sp1): consistently increased
